Data from patent publication US20140105889A1 (published 2014).

T1: human FcγRIIb (human, UniProt P31994 43-217)
T1 construct: also called FcgRIIb; FcγIIB
T1 sequence: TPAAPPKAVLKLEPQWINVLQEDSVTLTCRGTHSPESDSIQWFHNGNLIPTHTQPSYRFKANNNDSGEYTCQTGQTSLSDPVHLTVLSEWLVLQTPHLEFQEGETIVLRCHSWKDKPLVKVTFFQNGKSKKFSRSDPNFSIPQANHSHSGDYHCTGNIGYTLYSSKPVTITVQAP

T2: human FcγRIIa type R (human, UniProt P12318 36-217)
T2 construct: also called FcgRIIaR; FcγRIIa(R)
T2 chain: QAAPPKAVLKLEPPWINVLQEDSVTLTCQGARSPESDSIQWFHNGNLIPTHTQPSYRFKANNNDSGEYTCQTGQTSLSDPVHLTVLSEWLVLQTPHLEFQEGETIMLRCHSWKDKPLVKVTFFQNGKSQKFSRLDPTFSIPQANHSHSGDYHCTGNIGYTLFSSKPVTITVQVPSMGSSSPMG

T3: human FcγRIIa type H (human, UniProt P12318 36-217)
T3 construct: also called FcgRIIaH; FcγRIIa(H)
T3 sequence: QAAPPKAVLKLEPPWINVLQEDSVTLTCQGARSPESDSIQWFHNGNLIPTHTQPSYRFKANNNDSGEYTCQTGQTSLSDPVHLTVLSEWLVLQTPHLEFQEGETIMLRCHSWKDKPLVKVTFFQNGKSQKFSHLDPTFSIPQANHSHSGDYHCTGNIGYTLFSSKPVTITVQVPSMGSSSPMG

B1: IL6R-BP082/IL6R-L (antibody, human IgG1)
heavy: QVQLQESGPGLVKPSETLSLTCAVSGHSISHDHAWSWVRQPPGEGLEWIGFISYSGITNYNPSLQGRVTISRDNSKNTLYLQMNSLRAEDTAVYYCARSLARTTAMDYWGEGTLVTVSSASTKGPSVFPLAPSSKSTSGGTAALGCLVKDYFPEPVTVSWNSGALTSGVHTFPAVLQSSGLYSLSSVVTVPSSSLGTQTYICNVNHKPSNTKVDKKVEPKSCDKTHTCPPCPAPDLLGGDSVFLFPPKPKDTLMISRTPEVTCVVVDVSHEDPEVKFNWYVDGVEVHNAKTKPREEQYNSTYRVVSVLTVLHQDWLNGKEYKCKVSNKALPKPIEKTISKAKGQPREPQVYTLPPSRDELTKNQVSLTCLVKGFYPSDIAVEWESNGQPENNYKTTPPVLDSDGSFFLYSKLTVDKSRWQQGNVFSCSVMHEALHNHYTQESLSLSP
light: DIQMTQSPSSLSASVGDRVTITCRASQDISSYLNWYQQKPGKAPKLLIYYTSRLHSGVPSRFSGSGSGTDFTFTISSLQPEDIATYYCQQGNTLPYTFGQGTKVEIK
B2: IL6R-BP181/IL6R-L (antibody, human IgG1)
heavy: QVQLQESGPGLVKPSETLSLTCAVSGHSISHDHAWSWVRQPPGEGLEWIGFISYSGITNYNPSLQGRVTISRDNSKNTLYLQMNSLRAEDTAVYYCARSLARTTAMDYWGEGTLVTVSSASTKGPSVFPLAPSSKSTSGGTAALGCLVKDYFPEPVTVSWNSGALTSGVHTFPAVLQSSGLYSLSSVVTVPSSSLGTQTYICNVNHKPSNTKVDKKVEPKSCDKTHTCPPCPAPDLLGGDSVFLFPPKPKDTLMISRTPEVTCVVVDVSHEDGEVKFNWYVDGVEVHNAKTKPREEQYNSTYRVVSVLTVLHQDWLNGKEYKCKVSNAALPKPIEKTISKAKGQPREPQVYTLPPSRDELTKNQVSLTCLVKGFYPSDIAVEWESNGQPENNYKTTPPVLDSDGSFFLYSKLTVDKSRWQQGNVFSCSVMHEALHNHYTQESLSLSP
light: DIQMTQSPSSLSASVGDRVTITCRASQDISSYLNWYQQKPGKAPKLLIYYTSRLHSGVPSRFSGSGSGTDFTFTISSLQPEDIATYYCQQGNTLPYTFGQGTKVEIK
B3: IL6R-BP131/IL6R-L (antibody, human IgG1)
heavy: QVQLQESGPGLVKPSETLSLTCAVSGHSISHDHAWSWVRQPPGEGLEWIGFISYSGITNYNPSLQGRVTISRDNSKNTLYLQMNSLRAEDTAVYYCARSLARTTAMDYWGEGTLVTVSSASTKGPSVFPLAPSSKSTSGGTAALGCLVKDYFPEPVTVSWNSGALTSGVHTFPAVLQSSGLYSLSSVVTVPSSSLGTQTYICNVNHKPSNTKVDKKVEPKSCDKTHTCPPCPAPDLLGDDSVFLFPPKPKDTLMISRTPEVTCVVVDVSHEDPEVKFNWYVDGVEVHNAKTKPREEQYNSTYRVVSVLTVLHQDWLNGKEYKCKVSNKALPKPIEKTISKAKGQPREPQVYTLPPSRDELTKNQVSLTCLVKGFYPSDIAVEWESNGQPENNYKTTPPVLDSDGSFFLYSKLTVDKSRWQQGNVFSCSVMHEALHNHYTQESLSLSP
light: DIQMTQSPSSLSASVGDRVTITCRASQDISSYLNWYQQKPGKAPKLLIYYTSRLHSGVPSRFSGSGSGTDFTFTISSLQPEDIATYYCQQGNTLPYTFGQGTKVEIK
B4: IL6R-2B253/IL6R-L (antibody, human IgG1)
heavy: QVQLQESGPGLVKPSETLSLTCAVSGHSISHDHAWSWVRQPPGEGLEWIGFISYSGITNYNPSLQGRVTISRDNSKNTLYLQMNSLRAEDTAVYYCARSLARTTAMDYWGEGTLVTVSSASTKGPSVFPLAPSSKSTSGGTAALGCLVKDYFPEPVTVSWNSGALTSGVHTFPAVLQSSGLYSLSSVVTVPSSSLGTQTYICNVNHKPSNTKVDKKVEPKSCDKTHTCPPCPAPDLLGGDSVFLFPPKPKDTLMISRTPEVTCVVVDVSHEDPEVKFNWYVDGVEVHNAKTKPREEQYNSTYRVVSVLTVLHQDWLNGKEYKCKMSNKALPAPIEKTISKAKGQPREPQVYTLPPSRDELTKNQVSLTCLVKGFYPSDIAVEWESNGQPENNYKTTPPVLDSDGSFFLYSKLTVDKSRWQQGNVFSCSVMHEALHNHYTQESLSLSP
light: DIQMTQSPSSLSASVGDRVTITCRASQDISSYLNWYQQKPGKAPKLLIYYTSRLHSGVPSRFSGSGSGTDFTFTISSLQPEDIATYYCQQGNTLPYTFGQGTKVEIK
B5: IL6R-B3/IL6R-L (antibody, human IgG1)
heavy: not shown
light: DIQMTQSPSSLSASVGDRVTITCRASQDISSYLNWYQQKPGKAPKLLIYYTSRLHSGVPSRFSGSGSGTDFTFTISSLQPEDIATYYCQQGNTLPYTFGQGTKVEIK
notes: Parent polypeptide
B6: IL6R-BP083/IL6R-L (antibody, human IgG1)
heavy: QVQLQESGPGLVKPSETLSLTCAVSGHSISHDHAWSWVRQPPGEGLEWIGFISYSGITNYNPSLQGRVTISRDNSKNTLYLQMNSLRAEDTAVYYCARSLARTTAMDYWGEGTLVTVSSASTKGPSVFPLAPSSKSTSGGTAALGCLVKDYFPEPVTVSWNSGALTSGVHTFPAVLQSSGLYSLSSVVTVPSSSLGTQTYICNVNHKPSNTKVDKKVEPKSCDKTHTCPPCPAPELLGGDSVFLFPPKPKDTLMISRTPEVTCVVVDVSHEDPEVKFNWYVDGVEVHNAKTKPREEQDNSTYRVVSVLTVLHQDWLNGKEYKCKVSNKALPKPIEKTISKAKGQPREPQVYTLPPSRDELTKNQVSLTCLVKGFYPSDIAVEWESNGQPENNYKTTPPVLDSDGSFFLYSKLTVDKSRWQQGNVFSCSVMHEALHNHYTQESLSLSP
light: DIQMTQSPSSLSASVGDRVTITCRASQDISSYLNWYQQKPGKAPKLLIYYTSRLHSGVPSRFSGSGSGTDFTFTISSLQPEDIATYYCQQGNTLPYTFGQGTKVEIK
notes: The variants were built on IL6R-BF648 (P238D), so it is read as P238D
B7: IL6R-BF648/IL6R-L (antibody, human IgG1)
heavy: not shown
light: DIQMTQSPSSLSASVGDRVTITCRASQDISSYLNWYQQKPGKAPKLLIYYTSRLHSGVPSRFSGSGSGTDFTFTISSLQPEDIATYYCQQGNTLPYTFGQGTKVEIK
B8: IL6R-2B261/IL6R-L (antibody, human IgG1)
heavy: QVQLQESGPGLVKPSETLSLTCAVSGHSISHDHAWSWVRQPPGEGLEWIGFISYSGITNYNPSLQGRVTISRDNSKNTLYLQMNSLRAEDTAVYYCARSLARTTAMDYWGEGTLVTVSSASTKGPSVFPLAPSSKSTSGGTAALGCLVKDYFPEPVTVSWNSGALTSGVHTFPAVLQSSGLYSLSSVVTVPSSSLGTQTYICNVNHKPSNTKVDKKVEPKSCDKTHTCPPCPAPDLLGGDSVFLFPPKPKDTLMISRTPEVTCVVVDVSHEDPEVKFNWYVDGVEVHNAKTKPREEQDNSTYRVVSVLTVLHQDWLNGKEYKCKVSNKALPAPIEKTISKAKGQPREPQVYTLPPSRDELTKNQVSLTCLVKGFYPSDIAVEWESNGQPENNYKTTPPVLDSDGSFFLYSKLTVDKSRWQQGNVFSCSVMHEALHNHYTQESLSLSP
light: DIQMTQSPSSLSASVGDRVTITCRASQDISSYLNWYQQKPGKAPKLLIYYTSRLHSGVPSRFSGSGSGTDFTFTISSLQPEDIATYYCQQGNTLPYTFGQGTKVEIK
B9: IL6R-BP151/IL6R-L (antibody, human IgG1)
heavy: QVQLQESGPGLVKPSETLSLTCAVSGHSISHDHAWSWVRQPPGEGLEWIGFISYSGITNYNPSLQGRVTISRDNSKNTLYLQMNSLRAEDTAVYYCARSLARTTAMDYWGEGTLVTVSSASTKGPSVFPLAPSSKSTSGGTAALGCLVKDYFPEPVTVSWNSGALTSGVHTFPAVLQSSGLYSLSSVVTVPSSSLGTQTYICNVNHKPSNTKVDKKVEPKSCDKTHTCPPCPAPDYLGDDSVFLFPPKPKDTLMISRTPEVTCVVVDVSHEDPEVKFNWYVDGVEVHNAKTKPREEQYNSTYRVVSVLTVLHQDWLNGKEYKCKVSNAALPRPIEKTISKAKGQPREPQVYTLPPSRDELTKNQVSLTCLVKGFYPSDIAVEWESNGQPENNYKTTPPVLDSDGSFFLYSKLTVDKSRWQQGNVFSCSVMHEALHNHYTQESLSLSP
light: DIQMTQSPSSLSASVGDRVTITCRASQDISSYLNWYQQKPGKAPKLLIYYTSRLHSGVPSRFSGSGSGTDFTFTISSLQPEDIATYYCQQGNTLPYTFGQGTKVEIK

Tests used:
Assay in all cases: SPR (Biacore), FcγR over captured antibody; binding amount / that of IL6R-BF648/IL6R-L x100
human FcγRIIIa type V = target: T4, human FcγRIIIa type V (human, UniProt P08637 17-208, limits assumed)
T4 construct: Allotype V158 was used; also called FcgRIIIaV; FcγRIIIa(V)
T4 sequence (P08637 other isoform, or with tags, fused parts or gaps limits assumed): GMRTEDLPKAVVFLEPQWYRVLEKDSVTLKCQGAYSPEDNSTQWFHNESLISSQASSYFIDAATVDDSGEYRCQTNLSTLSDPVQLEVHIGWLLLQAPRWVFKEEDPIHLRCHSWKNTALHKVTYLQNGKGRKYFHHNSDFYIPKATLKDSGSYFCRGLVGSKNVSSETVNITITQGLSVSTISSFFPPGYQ
Procedure: (§1) According to the following method, relative binding activities were calculated for the results of analyzing interactions with the respective FcγRs.

human FcγRIa = target: T5, human FcγRIa (human, UniProt P12314 16-292, limits assumed)
T5 construct: also called FcgRIa; CD64
T5 sequence (P12314 16-292 limits assumed): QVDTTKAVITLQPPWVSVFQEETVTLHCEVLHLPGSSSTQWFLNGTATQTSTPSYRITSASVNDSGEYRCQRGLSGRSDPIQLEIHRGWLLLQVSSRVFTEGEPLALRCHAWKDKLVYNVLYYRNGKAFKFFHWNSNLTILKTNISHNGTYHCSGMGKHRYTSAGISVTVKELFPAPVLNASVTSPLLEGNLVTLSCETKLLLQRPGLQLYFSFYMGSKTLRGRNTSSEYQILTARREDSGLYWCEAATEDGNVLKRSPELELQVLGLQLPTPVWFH
Procedure: as §1

human FcγRIIb = target: T1, human FcγRIIb
Procedure: as §1

human FcγRIIa type R = target: T2, human FcγRIIa type R
Procedure: as §1

human FcγRIIa type H = target: T3, human FcγRIIa type H
Procedure: as §1

Binder | relative binding activity (human FcγRIIIa type V) | relative binding activity (human FcγRIa) | relative binding activity (human FcγRIIb) | relative binding activity (human FcγRIIa type R) | relative binding activity (human FcγRIIa type H)
B1 | 87 % of IL6R-BF648/IL6R-L | 74 % of IL6R-BF648/IL6R-L | 136 % of IL6R-BF648/IL6R-L | 126 % of IL6R-BF648/IL6R-L | 106 % of IL6R-BF648/IL6R-L
B2 | 122 % of IL6R-BF648/IL6R-L | 108 % of IL6R-BF648/IL6R-L | – | 362 % of IL6R-BF648/IL6R-L | 150 % of IL6R-BF648/IL6R-L
B3 | 118 % of IL6R-BF648/IL6R-L | 33 % of IL6R-BF648/IL6R-L | – | 364 % of IL6R-BF648/IL6R-L | 253 % of IL6R-BF648/IL6R-L
B4 | 126 % of IL6R-BF648/IL6R-L | 155 % of IL6R-BF648/IL6R-L | 156 % of IL6R-BF648/IL6R-L | 288 % of IL6R-BF648/IL6R-L | 207 % of IL6R-BF648/IL6R-L
B5 | 3260 % of IL6R-BF648/IL6R-L | 145 % of IL6R-BF648/IL6R-L | 58 % of IL6R-BF648/IL6R-L | 625 % of IL6R-BF648/IL6R-L | 1600 % of IL6R-BF648/IL6R-L
B6 | 107 % of IL6R-BF648/IL6R-L | 50 % of IL6R-BF648/IL6R-L | 122 % of IL6R-BF648/IL6R-L | 87 % of IL6R-BF648/IL6R-L | 91 % of IL6R-BF648/IL6R-L
B7 | 100 % of IL6R-BF648/IL6R-L | 100 % of IL6R-BF648/IL6R-L | 100 % of IL6R-BF648/IL6R-L | 100 % of IL6R-BF648/IL6R-L | 100 % of IL6R-BF648/IL6R-L
B8 | 87 % of IL6R-BF648/IL6R-L | 100 % of IL6R-BF648/IL6R-L | 115 % of IL6R-BF648/IL6R-L | 94 % of IL6R-BF648/IL6R-L | 91 % of IL6R-BF648/IL6R-L
B9 | 221 % of IL6R-BF648/IL6R-L | 39 % of IL6R-BF648/IL6R-L | – | 705 % of IL6R-BF648/IL6R-L | 621 % of IL6R-BF648/IL6R-L
